Experimental data: patent US20170015742A1 (published 2017)
Changes are numbered by the printed parent chain. Names may count otherwise. “And” between values parts separate entries of the source, which are not always exact repeats. Equal entries are not always repeated. Values belong to the binder of their own block, whether it stands above or below them.

Assays:
Human VEGF-A 165 = molecular target: T1, Human VEGF-A 165 (human, UniProt P15692 207-395); assay: Biacore SPR (Example 1.1)
T1 construct: also called hVEGF165; huVEGF-A165
Procedure: Unreacted moieties on the biosensor surface were blocked with ethanolamine. For kinetic analysis, rate equations derived from the 1:1 Langmuir binding model were fitted simultaneously to multiple antigen injections (using global fit analysis) with the use of Scrubber 2 (BioLogic Software), Biacore Biaevaluation 4.0.1 software or Biacore T100 Evaluation software. Purified antibodies or DVD-Ig molecules were diluted in running buffer for capture across goat anti-human Fc reaction surfaces. Antibodies or DVD-Ig molecules to be captured as a ligand (1 μg/ml) were injected over reaction matrices at a flow rate of 10 μl/minute. During the assay, all measurements were referenced against the capture surface alone (i.e., with no captured antibody or DVD-Ig molecule). […] The equilibrium dissociation constant KD (M) of the reaction between antibodies and the target antigen was then calculated from the kinetic rate constants by the following formula: KD=Koff/Kₒₙ. Binding was recorded as a function of time and kinetic rate constants were calculated. In this assay, on-rates as fast as 10⁶M⁻¹s⁻¹ and off-rates as slow as 10⁻⁶ s⁻¹ could be measured. […]

PDGF-BB = molecular target: T2, PDGF-BB (human, UniProt P01127 82-190, limits assumed); assay: Biacore SPR; DVD-Ig captured on anti-human Fc, antigen injected
T2 construct: also called human PDGF-BB; hPDGF-BB
Procedure: (§1) For example, approximately 9000 RU of goat anti-human Fc specific polyclonal antibody (Thermo Fisher Scientific Inc., Rockford, Ill.) diluted in 10 mM sodium acetate (pH 4.5) is directly immobilized across a CM5 research grade biosensor chip using a standard amine coupling kit according to manufacturer's instructions and procedures at 25 μg/ml. Unreacted moieties on the biosensor surface were blocked with ethanolamine. For kinetic analysis, rate equations derived from the 1:1 Langmuir binding model were fitted simultaneously to multiple antigen injections (using global fit analysis) with the use of Scrubber 2 (BioLogic Software), Biacore Biaevaluation 4.0.1 software or Biacore T100 Evaluation software. Purified antibodies or DVD-Ig molecules were diluted in running buffer for capture across goat anti-human Fc reaction surfaces. Antibodies or DVD-Ig molecules to be captured as a ligand (1 μg/ml) were injected over reaction matrices at a flow rate of 10 μl/minute. During the assay, all measurements were referenced against the capture surface alone (i.e., with no captured antibody or DVD-Ig molecule). […] The equilibrium dissociation constant KD (M) of the reaction between antibodies and the target antigen was then calculated from the kinetic rate constants by the following formula: KD=Koff/Kₒₙ. Binding was recorded as a function of time and kinetic rate constants were calculated.

VEGF-A = molecular target: T3, VEGF-A (human, UniProt P15692 207-395); assay: as above
T3 construct: also called hVEGF165
Procedure: as §1

T3 sequence (P15692 other isoform, or with tags, fused parts or gaps limits assumed): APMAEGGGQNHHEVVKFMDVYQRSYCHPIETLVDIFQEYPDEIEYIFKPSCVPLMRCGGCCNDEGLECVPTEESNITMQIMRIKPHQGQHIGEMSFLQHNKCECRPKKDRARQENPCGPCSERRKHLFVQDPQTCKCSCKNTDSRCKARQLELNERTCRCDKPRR
T1 sequence (P15692 other isoform, or with tags, fused parts or gaps limits assumed): as above
T2 sequence (P01127 82-190 limits assumed): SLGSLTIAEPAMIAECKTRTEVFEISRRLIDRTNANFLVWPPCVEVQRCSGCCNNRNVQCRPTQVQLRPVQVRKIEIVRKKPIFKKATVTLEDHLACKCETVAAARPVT

- Kd (Human VEGF-A 165): 0.0039 nM
- kon (Human VEGF-A 165): 1.2e+07 M⁻¹ s⁻¹
B1: BEW-5C3-E7 (antibody, IgG2b, V domains shown)
VH: QIQLVQSGPELKKPGESVKISCKASGYTFTNYGVYWVKQAPGQGLQYMGWINTETGKPTYADDFKGRFVFFLETSTNTAYLQINNLKNEDMATFFCARARQLDWFVYWGQGTLVTVSS
VL: DTVLTQSPALTVSPGERVSISCRARESLTTSLCWFQQKPGQQPKLLIYGASKLESGVPARFSGSGSGTDFTLTIDPVEADDTATYFCQQSWYDPPTFGGGTKLELK

- Kd (Human VEGF-A 165): 0.012 nM
- kon (Human VEGF-A 165): 6.9e+06 M⁻¹ s⁻¹
B2: BEW-6C2-C8 (antibody, IgG2b, V domains shown)
VH: EVQLVESGGGLVQPGSSLKLSCAASGFTFSYYGMHWIRQAPKKGLEWMALIYYDSSKMYYADSVKGRFTISRDNSKNTLYLEMNSLRSEDTAMYYCAAGGTAPVYWGQGVMVTVSS
VL: NIQLTQSPSLLSASVGDRVTLSCKGSQNIANYLAWYQQKLGEAPKLLIYNTDSLQTGIPSRFSGSGSGTDYTLTISSLQPEDVATYFCYQSNNGYTFGAGTKLELR

- Kd (Human VEGF-A 165): 0.017 nM
- kon (Human VEGF-A 165): 6.9e+06 M⁻¹ s⁻¹
B3: BEW-8E6-E4 (antibody, IgG2a, V domains shown)
VH: QIQLVQSGPELKKPGESVKISCKASGYTFTDYAMHWVKQAPGKVLKWMGWINTFTGKPTYIDDFKGRFVFSLEASASTANLQISDLKNEDTATYFCARGNYYSGYWYFDFWGPGTMVTMSS
VL: DIQMTQSPASLSASLGETISIECRASEDISSNLAWYQQKSGKSPQLLIFAANRLQDGVPSRFSGSGSGTQFSLKISGMQPEDEGDYFCLQGSKFYTFGAGTKLELK

- Kd (Human VEGF-A 165): 0.011 nM
- kon (Human VEGF-A 165): 2.4e+07 M⁻¹ s⁻¹
B4: BEW-10H2-B9 (antibody, IgG2b, V domains shown)
VH: QIQLVQSGPELKKPGESVKISCKASGYSFTNFGLYWVKQAPGQGLQYMGWIDTETGKPTYADDFRGRFVFFLETSASTAYLQINNLKNEDMATYFCARVYGYPSWYFDFWGPGTMVTVSS
VL: DIQMTQSPASLSTSLEEIVTITCQASQDIDNYLSWYQQKPGKSPQLLIHSATSLADGVPSRFSGSRSGTQFSLKIHRLQVEDTGIYYCLQHFFPPWTFGGGTKLELK

- Kd (Human VEGF-A 165): 0.0043 nM
- kon (Human VEGF-A 165): 5.9e+06 M⁻¹ s⁻¹
B5: BEW-9E7-B4 (antibody, IgG2b, V domains shown)
VH: QIQLVQSGPELKKPGESVKISCKASGYTFTNYGMYWVKQAPGQGLQYMGWIDTETGKPTYADDFKGRFVFFLETSASTAYLQINNLRNEDMATYFCARWGYTSDYYYGWFPDWGQGTLVTVST
VL: DTVLTQSPALAVSPGERVSISCRASEGVNSYMHWYQQNPGQQPKLLIYKASNLASGVPARFSGSGSGTDFTLNIHPVEADDTATYFCQQNWNVPLTFGSGTKLEIK

- Kd (Human VEGF-A 165): 0.01 nM
- kon (Human VEGF-A 165): 1.4e+07 M⁻¹ s⁻¹
B6: BEW-1E3-D6 (antibody, IgG2b, V domains shown)
VH: QIQLVQSGPELKKPGESVKISCKASGYPFTNSGMYWVKQAPGQGLQYMGWINTEAGKPTYADDFKGRFVFFLETSASTAYLQINNLKNEDMATYFCARWGYISDNSYGWFDYWGQGTLVTVSS
VL: B5 VL with N29Y, N73T, H75D, Q88H, V93D

- Kd (Human VEGF-A 165): 0.016 nM
- kon (Human VEGF-A 165): 4.4e+06 M⁻¹ s⁻¹
B7: BEW-1B10-B9-C3 (antibody, IgG2a, V domains shown)
VH: EVQLVESGGGLVQPGRSLKLSCAASGFSFSKYDMAWFRQTPTKGLEWVASITTSGVGTYYRDSVKGRFTVSRDNAKSTLYLQMDSLRSEDTATYYCARGYGAMDAWGQGTSVTVSS
VL: DIQMTQSPASLSASLEEIVTITCKASQDIDDYLSWYQQKPGKSPQLVIYAATRLADGVPSRFSGSGSGTQYSLKISRLQVDDSGIYYCLQSSSTPWTFGGGTNLELK

- Kd (Human VEGF-A 165): ≤ 0.00081 nM and 0.0012 nM
- kon (Human VEGF-A 165): ≥ 1e+07 M⁻¹ s⁻¹ and 1.4e+07 M⁻¹ s⁻¹
B8: BDB-4G8-D4 (antibody, IgG2b, V domains shown)
VH: QIQLVQSGPELKKPGESVKISCKASGYTFTNYGMYWVKQAPGQGLQYMGWINTETGKPTYADDFKGRFVFFLETSASTAYLQINNLKNEDMATYFCARTNYYYRSYIFYFDYWGQGTMVTVSS
VL: DTVLTQSPALAVSPGERVSISCRASESVSTHMHWYQQKPGQQPKLLIYGASNLESGVPARFSGSGSGTDFTLTIDPVEADDTATYFCQQSWNDPFTFGAVTKLELK

- Kd (Human VEGF-A 165): 0.06 nM
- kon (Human VEGF-A 165): 1.8e+07 M⁻¹ s⁻¹
B9: BED-4G10-C8 (antibody, IgG2b, V domains shown)
VH: QVQLQQSGTELVKPGSSVKISCKASGYTFTSNYMHWIRQQPGNGLEWIGWIYPGDGDTNYNHNFNGKATLTADKSSSTAYMQLSSLTSEDFAVYFCASSTRAIPGWFTYWGQGTLVTVSS
VL: B8 VL with R23W, H31L, P39L, S62R, N92S, F95Y, V100G

- Kd (Human VEGF-A 165): 0.00096 nM
- kon (Human VEGF-A 165): 7.4e+06 M⁻¹ s⁻¹
B10: BEW-9A8-E2 (antibody, IgG2a, V domains shown)
VH: QIQLVQSGPELKKPGESVKISCKASGYTFTNYGMYWVKQAPGQGLQYMGWINTETGKPIYADDFKGRFVFFLETSASTAYLQINNLKNEDMATFFCARVDYDGSFWFAYWGQGTLVTVSS
VL: B8 VL with H31V, M32I, Y48H, S90H, F95P, V100G, L105M

- Kd (PDGF-BB): 0.011 nM
- kon (PDGF-BB): 1.8e+07 M⁻¹ s⁻¹
- Kd (VEGF-A): 0.0081 nM
- kon (VEGF-A): 6.3e+06 M⁻¹ s⁻¹
B11: 4G8.3-LS-9E8.4 (g) (PR-1572106) (bispecific antibody, human IgG1, kappa, L234A L235A)
heavy: EVQLVQSGSELKKPGASVKVSCKASGYTFTNYGMYWVRQAPGQGLEWMGWINTETGKPTYADDFKGRFVFSLDTSVSTAYLQISSLKAEDTAVYYCARTNYYYRSYIFYFDYWGQGTMVTVSSASTKGPSVFPLAPEVTLRESGPALVKPTQTLTLTCTFSGFSLSTYGMGVGWIRQPPGKALEWLANIWWDDDKYYNPSLKNRLTISKDTSKNQVVLTMTNMDPVDTATYYCARIESIGTTYSFDYWGQGTMVTVSSASTKGPSVFPLAPSSKSTSGGTAALGCLVKDYFPEPVTVSWNSGALTSGVHTFPAVLQSSGLYSLSSVVTVPSSSLGTQTYICNVNHKPSNTKVDKKVEPKSCDKTHTCPPCPAPEAAGGPSVFLFPPKPKDTLMISRTPEVTCVVVDVSHEDPEVKFNWYVDGVEVHNAKTKPREEQYNSTYRVVSVLTVLHQDWLNGKEYKCKVSNKALPAPIEKTISKAKGQPREPQVYTLPPSREEMTKNQVSLTCLVKGFYPSDIAVEWESNGQPENNYKTTPPVLDSDGSFFLYSKLTVDKSRWQQGNVFSCSVMHEALHNAYTQKSLSLSPGK
light: DTVLTQSPATLSLSPGERATLSCRASESVSTHMHWYQQKPGQAPRLLIYGASNLESGVPARFSGSGSGTDFTLTISSLEPEDFAVYFCQQSWNDPFTFGQGTKLEIKRTVAAPEFVLTQSPGTLSLSPGERATLSCERSSGDIGDSYVSWYQQKPGQAPRLVIYADDQRPSGIPDRFSGSGSGTDFTLTISRLEPEDFAVYYCQSYDINIDIVFGGGTKVEIKRTVAAPSVFIFPPSDEQLKSGTASVVCLLNNFYPREAKVQWKVDNALQSGNSQESVTEQDSKDSTYSLSSTLTLSKADYEKHKVYACEVTHQGLSSPVTKSFNRGEC
notes: DVD-Ig: outer hBDB-4G8.3 (VEGF), inner hBDI-9E8.4 (PDGF), linkers HG-long/LK-short; Human IgG1 L234A, L235A, H435A with kappa

- Kd (PDGF-BB): 0.014 nM
- kon (PDGF-BB): 2e+07 M⁻¹ s⁻¹
- Kd (VEGF-A): 0.01 nM
- kon (VEGF-A): 5.8e+06 M⁻¹ s⁻¹
B12: 4G8.3-LS-9E8.4E (PR-1575835) (bispecific antibody, human IgG1, kappa, L234A L235A)
heavy: B11 heavy
light: B11 light with D145E
notes: DVD-Ig: outer hBDB-4G8.3 (VEGF), inner hBDI-9E8.4E (PDGF), linkers HG-long/LK-short; Human IgG1 L234A, L235A, H435A with kappa

- Kd (Human VEGF-A 165): 0.14 nM
- kon (Human VEGF-A 165): 1e+07 M⁻¹ s⁻¹
B13: BEW-3A1-D10-G9 (antibody, IgG2b, V domains shown)
VH: QVQLEQSGAELVKPGTSVKLSCMASGYTSSSNHMNWMKQTTGQGLEWIGIINPGSGGTRYNVKFEGKATLTVDKSSSTAFMQLNSLTPEDSAVYYCARAGFPGPFSYYAMGAWGQGTSVTVSS
VL: DIQMTQSPPVLSASVGDRVTLSCKASQNIHNNLDWYQQKHGEAPKLLIFYTNNLQTGIPSRFSGSGSGTDYTLTISSLQPEDVATYYCYQYNSGYTFGAGTKLELK

- Kd (Human VEGF-A 165): 0.0074 nM
- kon (Human VEGF-A 165): 1.8e+07 M⁻¹ s⁻¹
B14: BEW-1B4-C4 (antibody, IgG2b, V domains shown)
VH: QIQLVQSGPELKKPGESVKISCKASGYSFTNYGMYWVKQAPGQGLQYMGWIDTETGKPTYTDDFKGRFVFFLETSASTAYLQINNLKNEDMATYFCARWSGDTAGIRGPWFAYWGQGTLVTVSS
VL: DIRMTQSPASLSASLGETVNIECLASEDIYSDLAWYQQKPGKSPQLLIYNANDLQKGVPSRFSGSGSGTQYSLKINSLQSEDVATYFCQQYNYYPGTFGAGTKLELK
notes: Rat hybridoma monoclonal antibody

- Kd (Human VEGF-A 165): 0.0031 nM
- kon (Human VEGF-A 165): 1.3e+07 M⁻¹ s⁻¹
B15: BEW-9E10-E7 (antibody, IgG2a, V domains shown)
VH: B14 VH with V5L, S28T, K57R, T61A, A104T
VL: B14 VL with K42R, D53G, K56N, S63G, Y94F
